Kd data for one molecule are collected here from patent WO2022059800A1 (dated 2022).

The target in this assay is T1, recombinant Tie2-Fc fusion protein (R&D systems) (UniProt Q02763 23-745).
T1 construct: not shown: Fc part
The experiment in a line: Biacore 8K, Ang2 amine-coupled, Tie2-Fc as analyte, single-cycle kinetics.

T1 sequence (Q02763 23-745 limits assumed): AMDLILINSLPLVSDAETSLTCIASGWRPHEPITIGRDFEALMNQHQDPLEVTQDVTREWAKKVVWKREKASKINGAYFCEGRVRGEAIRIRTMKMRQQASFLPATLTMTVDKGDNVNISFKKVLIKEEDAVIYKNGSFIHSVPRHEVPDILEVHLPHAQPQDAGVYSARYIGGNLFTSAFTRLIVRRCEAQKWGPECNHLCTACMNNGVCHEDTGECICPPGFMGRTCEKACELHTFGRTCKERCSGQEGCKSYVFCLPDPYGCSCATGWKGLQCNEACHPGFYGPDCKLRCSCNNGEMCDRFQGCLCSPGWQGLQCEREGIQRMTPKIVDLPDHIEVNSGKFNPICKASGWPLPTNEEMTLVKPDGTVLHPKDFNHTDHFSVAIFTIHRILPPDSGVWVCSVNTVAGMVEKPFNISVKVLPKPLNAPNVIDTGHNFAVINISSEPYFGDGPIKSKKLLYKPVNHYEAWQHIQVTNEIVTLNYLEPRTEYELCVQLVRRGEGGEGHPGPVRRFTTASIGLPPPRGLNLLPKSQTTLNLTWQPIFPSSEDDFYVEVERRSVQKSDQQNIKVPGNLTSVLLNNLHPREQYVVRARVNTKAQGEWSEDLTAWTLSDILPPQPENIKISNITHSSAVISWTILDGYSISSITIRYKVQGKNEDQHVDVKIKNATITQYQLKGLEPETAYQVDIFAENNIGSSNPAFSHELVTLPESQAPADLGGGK

B1: human recombinant Ang2 protein (ligand, UniProt O15123 19-496, looked up)
chain: YNNFRKSMDSIGKKQYQVQHGSCSYTFLLPEMDNCRSSSSPYVSNAVQRDAPLEYDDSVQRLQVLENIMENNTQWLMKLENYIQDNMKKEMVEIQQNAVQNQTAVMIEIGTNLLNQTAEQTRKLTDVEAQVLNQTTRLELQLLEHSLSTNKLEKQILDQTSEINKLQDKNSFLEKKVLAMEDKHIIQLQSIKEEKDQLQVLVSKQNSIIEELEKKIVTATVNNSVLQKQQHDLMETVNNLLTMMSTSNSAKDPTVAKEEQISFRDCAEVFKSGHTTNGIYTLTFPNSTEEIKAYCDMEAGGGGWTIIQRREDGSVDFQRTWKEYKVGFGNPSGEYWLGNEFVSQLTNQQRYVLKIHLKDWEGNEAYSLYEHFYLSSEELNYRIHLKGLTGTAGKISSISQPGNDFSTKDGDNDKCICKCSQMLTGGWWFDACGPSNLNGMYYPQRQNTNKFNGIKWYYWKGSGYSLKATTMMIRPADF
notes: also called rhAng2; angiopoietin-2
With B1, the Kd is 4.26 nM.

Broadly, the Kd is the equilibrium constant for the complex coming apart.
